# Patent US20220332804A1 (CSL INNOVATION, published 2022)
# Numbering of substitutions follows the chain as printed.
# T1: human C2 S720A (human, UniProt P06681 21-752)
# T1 sequence: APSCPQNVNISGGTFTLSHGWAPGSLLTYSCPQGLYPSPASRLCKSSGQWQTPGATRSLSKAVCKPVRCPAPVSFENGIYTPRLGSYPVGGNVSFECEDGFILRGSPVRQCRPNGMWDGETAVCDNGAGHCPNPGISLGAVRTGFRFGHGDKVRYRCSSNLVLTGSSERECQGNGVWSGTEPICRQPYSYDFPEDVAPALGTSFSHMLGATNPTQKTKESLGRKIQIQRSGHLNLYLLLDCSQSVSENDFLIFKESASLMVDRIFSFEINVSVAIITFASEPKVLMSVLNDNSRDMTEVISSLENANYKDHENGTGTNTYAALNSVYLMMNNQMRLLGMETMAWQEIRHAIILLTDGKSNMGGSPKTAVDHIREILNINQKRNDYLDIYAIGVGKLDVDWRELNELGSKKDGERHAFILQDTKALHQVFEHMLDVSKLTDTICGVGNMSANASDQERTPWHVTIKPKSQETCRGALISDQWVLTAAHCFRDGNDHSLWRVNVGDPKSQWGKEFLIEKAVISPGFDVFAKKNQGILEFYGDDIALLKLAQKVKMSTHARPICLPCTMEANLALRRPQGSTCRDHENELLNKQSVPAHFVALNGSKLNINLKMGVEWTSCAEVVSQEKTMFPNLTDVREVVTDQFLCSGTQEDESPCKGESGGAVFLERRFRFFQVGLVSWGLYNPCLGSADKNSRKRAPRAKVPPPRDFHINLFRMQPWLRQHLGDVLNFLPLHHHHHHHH
# T2: human C2 D710A (human, UniProt P06681 21-752)
# T2 sequence: T1 sequence with D690A, A700S
# T3: human C2 A326S (human, UniProt P06681 21-752)
# T3 sequence: T1 sequence with A306S, A700S
# T4: human C2 N621A (human, UniProt P06681 21-752)
# T4 sequence: T1 sequence with N601A, A700S
# B1: RF16-226 (antibody, human IgG4 S228P, lambda)
# heavy: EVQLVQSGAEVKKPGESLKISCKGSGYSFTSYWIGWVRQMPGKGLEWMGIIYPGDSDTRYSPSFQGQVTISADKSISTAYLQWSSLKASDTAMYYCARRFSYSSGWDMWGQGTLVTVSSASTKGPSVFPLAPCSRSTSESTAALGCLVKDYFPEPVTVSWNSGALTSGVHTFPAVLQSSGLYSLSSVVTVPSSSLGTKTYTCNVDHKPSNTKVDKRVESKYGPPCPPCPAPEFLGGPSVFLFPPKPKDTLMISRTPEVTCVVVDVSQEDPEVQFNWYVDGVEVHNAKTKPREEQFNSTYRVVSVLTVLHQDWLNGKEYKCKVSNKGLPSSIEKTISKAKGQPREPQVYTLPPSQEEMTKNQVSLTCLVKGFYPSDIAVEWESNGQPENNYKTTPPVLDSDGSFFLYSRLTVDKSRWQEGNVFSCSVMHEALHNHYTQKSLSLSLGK
# light: SYELTQPPSVSVSPGQTARITCSGDALTSKYVAWYQQKSGLAPLLVIYEDTRRPSGIPAKFSGSSSGSVATLTISGAHGDDEADYYCYSTDASGHQRVFGGGTKLTVLSQPKAAPSVTLFPPSSEELQANKATLVCLISDFYPGAVTVAWKADGSPVKAGVETTKPSKQSNNKYAASSYLSLTPEQWKSHRSYSCQVTHEGSTVEKTVAPTECS
# notes: pH-dependent anti-C2 antibody from a phage display library; also called WT
# Columns and labels:
# Assay in all cases: SPR, antibody captured, C2 as analyte;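 note: biacore SPR at 37 °C, anti-C2 mAbs captured via goat anti-human IgG on CM5 chips, double-referenced sensorgrams fit to a 1:1 kinetic or steady-state model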
# human C2 S720A = biological target: T1, human C2 S720A
# human C2 D710A = biological target: T2, human C2 D710A
# human C2 A326S = biological target: T3, human C2 A326S
# human C2 N621A = biological target: T4, human C2 N621A
binder,measurement,setting,value
B1,Kd,human C2 S720A,14.6 nM
same,Kd,human C2 D710A,97.4 nM
same,Kd,human C2 A326S,13.2 nM
same,Kd,human C2 N621A,51.5 nM
